According to patent US20060094649A1:

Columns and labels:
HLA-B*4403 (human) = assay: competition with labeled probe peptide, purified HLA class I
HLA-B*4001 (human) = assay: as above

IC50 (HLA-B*4403 (human)): 2.01 µM | IC50 (HLA-B*4001 (human)): 10.4 µM
Substance: SEQ ID NO 717, 7-mer of MAGE2 at position 234 (printed as WEELSML) (peptide)
